Broadly, the EC50 is the midpoint of the concentration-response curve. Higher therefore signals a need for much substance. In general, IC50 refers to the point on the concentration scale where inhibition reaches its midpoint.

Test [1] has as its target T1, mouse PD-1 protein (R&D Systems cat no. 1021-PD) (mouse, UniProt Q02242 25-167).
T1 construct: Bought protein
T1 sequence (looked up): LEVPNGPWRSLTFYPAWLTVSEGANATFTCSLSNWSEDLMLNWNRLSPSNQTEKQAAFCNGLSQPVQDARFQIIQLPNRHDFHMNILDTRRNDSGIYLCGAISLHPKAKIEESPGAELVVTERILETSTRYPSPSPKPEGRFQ
Briefly: HTRF binding assay, 2 nM mouse PD1. The method, then:
Purified VH were tested for their ability to bind to human PD1 (R&D Systems cat no. 1086-PD), cynomolgus PD-1 (Acro Biosystems cat no. PD-1-C5254) and mouse PD1 (R&D Systems cat no. 1021-PD) in an HTRF Binding assay format. All reagents and serially diluted VH were prepared in assay buffer containing PBS, 0.1% BSA and 0.4M Potassium Fluoride. Samples or assay buffer (non-specific binding) were incubated with 2 nM human/cynomolgus or mouse PD1, 1 nM Anti human-Fc Cryptate PAb (Cisbio cat. no. 61HFCKLB) and 30 nM anti His-D2 (CisBio cat no 61HISDLA) in black 384-shallow well assay plates for a minimum of 3 hours at room temperature. Time-resolved fluorescent emission at 620 nm and 665 nm was measured following excitation at 337 nm on the BMG PHERAstar plate reader. The HTRF ratio were calculated ((665 nm emission/620 nm emission)*10000) and the data corrected for (non-specific binding) to give the specific binding signal.
On the technique in general: Time-resolved FRET reads energy transfer from a long-lived donor to a nearby acceptor.

The target in test [2] is T2, human PD-1 expressed on cells (CHO TREX human PD1 cell line, full-length human PD-1 sequence) (human, UniProt Q15116 21-288).
T2 construct: Also used for human PD-1 on Jurkat reporter cells, on PathHunter cells and on PHA-stimulated human CD4+ T cells; also called CHO human PD1 cells; CHO human PD-1 cells
T2 sequence (Q15116 21-288): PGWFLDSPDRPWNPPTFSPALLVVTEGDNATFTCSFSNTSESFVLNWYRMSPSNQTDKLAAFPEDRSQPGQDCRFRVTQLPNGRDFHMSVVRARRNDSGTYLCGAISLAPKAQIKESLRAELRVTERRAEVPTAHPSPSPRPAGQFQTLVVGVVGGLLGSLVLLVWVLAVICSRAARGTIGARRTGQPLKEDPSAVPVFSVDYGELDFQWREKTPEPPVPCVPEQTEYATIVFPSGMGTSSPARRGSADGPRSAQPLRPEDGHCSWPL
As to the kind of experiment: flow cytometry, PHA-stimulated human CD4+ T cells, Donor 4. The procedure: (§1) Binding of monovalent single domain antibodies and multivalent binding agents to T cells was measured using flow cytometry. Peripheral blood mononuclear cells (PBMCs) were isolated from human blood by density gradient centrifugation then CD4+ T cells purified using a negative selection isolation kit according to the manufacturer's protocol (Miltenyi Biotech cat no 130-096-533). T-cells were stimulated with 2.5 μg/ml PHA for 3 days in RPMI media supplemented with 10% FBS, 2 mM Glutamine, 1× Pen/Strep. Cells were transferred into 96 well plates (75000 per well), blocked for 10 mins with PBS/1% BSA, then incubated with serially diluted VH in staining buffer (PBS/1% BSA) for 1 hour at 4° C. Cells were washed with staining buffer by centrifugation then incubated with 10 μg/ml biotinylated Anti His antibody for 40 mins at 4° C. Cells were washed again then stained with Streptavidin Alexa Fluor-488 (10 μg/ml) and 1:5000 diluted Live Dead near IR stain (Molecular Probes cat no. L10119) for 30 mins at 4° C. After further washing cells were fixed and fluorescence measured by flow cytometry.
(In general: A flow cytometer gives signals particle by particle.)

The target in test [3] is T2, human PD-1 expressed on cells (CHO TREX …). As to the kind of experiment: FMAT binding to CHO human PD-1 cells.
For test [4] the target is unchanged. As to the kind of experiment: FMAT epitope competition, CHO human PD1 cells; competitor Epitope 2 (2.1-Strep tagged protein). The method, then:
For the epitope competition assay reagents were prepared in FMAT assay buffer.
Multivalent molecules 1.92b-4GS-1.39a and 1.92b-4gs-1.62a were tested in the epitope competition assay as described above. 1.92b-4GS-1.39a and 1.92b-4gs-1.62 did cross compete with 1.1-Strap tagged and 2.1-Strap tagged proteins for binding to the cells.
Plates were incubated for a minimum of 1.5 hours at room temperature then fluorescence measured in the FL2 (502 nm-537 nm) and FL5 (677-800 nm) channels on the Mirrorball plate reader (TTP) following excitation at 488 nm and 640 nm. Data was expressed as a % of the total binding control (i.e. % control) after subtraction of the background signal determined from the non-specific binding control wells.

For test [5] the target is unchanged. Briefly: epitope competition assay on CHO human PD1 cells (labelled VH not specified) after 7 days in mouse serum. The procedure: (§2) Serum stability of VH and multivalent VH constructs was assessed by measurement of their activity following incubation for 0, 1, 4 or 7 days both in mouse (Sigma M5905) and human serum. […] Minimal loss of activity was observed following incubation with serum.

For test [6] the target is unchanged. As to the kind of experiment: epitope competition assay on CHO human PD1 cells (labelled VH not specified) after 7 days in human serum. The method, then: as §2
For test [7] the target is unchanged. As to the kind of experiment: epitope competition assay on CHO human PD1 cells (labelled VH not specified) after 1 day in mouse serum. The procedure:
as §2

For test [8] the target is unchanged. Briefly: epitope competition assay on CHO human PD1 cells (labelled VH not specified) after 1 day in human serum. The method, then: as §2
The target is the same in test [9]. As to the kind of experiment: cell-based or functional assay.
Test [10] has the same target. As to the kind of experiment: flow cytometry, PHA-stimulated human CD4+ T cells, Donor 1. The method, then:
as §1

Test [11] has the same target. As to the kind of experiment: epitope competition assay on CHO human PD1 cells (labelled VH not specified) after 4 days in human serum. The method, then: as §2
The target is the same in test [12]. Briefly: flow cytometry, PHA-stimulated human CD4+ T cells, Donor 3. The procedure:
as §1

B1: 1.92b-4GS-1.62a (other)
chain: EVQLVESGGGLVKPGGSLRLSCAASGFTFSDESMTWMRQAPGKGLEWVSYISSGGGVKFYADSVKGRFTISRDNAKNSLYLQMNSLRAEDTAVYYCAREAPLRLGESPHDAFDISGQGTMVTVSSGGGGSGGGGSGGGGSGGGGSEVQLVESGGGVVRPGGSLRLSCAASGFTFDDYAMSWVRQAPGKGLEWVSGITWNAGSTGYADSVKGRFTISRDNAKNSLYLQMNSLRAEDTALYYCVRDKYSYAWSYDDFDIWGQGTMVTVSS
notes: Biparatopic VH-linker-VH; also called 1.92-4GS-1.62a; 1.92b-4gs-2.12a
As for B1, the binding result in [1] was “no binding”. Also, the EC50 in test [2] stood at 0.3 nM; in test [3], 0.2 nM; in [4], 1 nM; in [10], 0.3 nM; in test [12] it was 0.6 nM. Further, the concentration for half-maximal inhibition (IC50) in test [5] amounted to 2 nM; in test [6] it was 1.1 nM; in test [7], 2 nM; in [8] it was 1.3 nM; in test [11], 1.1 nM. In addition, in [9], the “EC50 (M), NFAT-Luciferase reporter gene assay” value amounted to 1.2e-09 M.

B2: 1.92b-4GS-1.39a (other)
chain: EVQLVESGGGLVKPGGSLRLSCAASGFTFSDESMTWMRQAPGKGLEWVSYISSGGGVKFYADSVKGRFTISRDNAKNSLYLQMNSLRAEDTAVYYCAREAPLRLGESPHDAFDISGQGTMVTVSSGGGGSGGGGSGGGGSGGGGSEVQLVESGGGLVQPGRSLRLSCAASGFTFDDYALHWVRQAPGKDLEWVSGISWNGGSYGYADSVKGRFTISRDNAKNSLYLQMNSLRAEDTALYYCVREKGPGLTGSTADYYGLDAWGQGTMVTVSS
notes: Biparatopic VH-linker-VH; built from its parts here because it is not clear whether 1112 is the protein or the nucleic acid
With B2, the binding result in test [1] is given as “no binding”. Besides, the EC50 in test [2] was found to be 0.5 nM; in test [3] it was 0.2 nM; in test [4], 1.2 nM; in [10], 0.5 nM; in test [12] it was 0.6 nM. Also, the IC50 turned out to be 1.8 nM in [5]; 1 nM in test [6]; 1.3 nM in [7]; 0.9 nM in [8]; 1.1 nM in test [11]. Further, in test [9], the “EC50 (M), NFAT-Luciferase reporter gene assay” value came to 2e-09 M.

The record behind these values is patent US20220306744A1 (CRESCENDO BIOLOGICS, published 2022).
